Our source for the screen value values is publication PMC6940986, “Structural Insights into the Intracellular Region of the Human Magnesium Transport Mediator CNNM4” (International Journal of Molecular Sciences, 2019).

B1: CNNM4_(cNMP) (human CNNM4 cyclic nucleotide monophosphate binding-like domain, residues 545-730) [modified: SeMet labeled in the crystals; SeMet labeled in the crystals] [human] / itself (parent)
chain: KISPQLLLAAHRFLATEVSQFSPSLISEKILLRLLKYPDVIQELKFDEHNKYYARHYLYTRNKPADYFILILQGKVEVEAGKENMKFETGAFSYYGTMALTSVPSDRSPAHPTPLSRSASLSYPDRTDVSTAATLAGSSNQFGSSVLGQYISDFSVRALVDLQYIKITRQQYQNGLLASRMENSPQ
B2: CNNM4_(BAT-cNMP-Ctail) (complete intracellular region of human CNNM4, residues 356-775) [human] / itself (parent)
chain: KEELNMIQGALELRTKTVEDIMTQLQDCFMIRSDAILDFNTMSEIMESGYTRIPVFEDEQSNIVDILYVKDLAFVDPDDCTPLKTITRFYNHPVHFVFHDTKLDAMLEEFKKGKSHLAIVQKVNNEGEGDPFYEVLGLVTLEDVIEEIIKSEILDESDMYTDNRSRKRVSEKNKRDFSAFKDADNELKVKISPQLLLAAHRFLATEVSQFSPSLISEKILLRLLKYPDVIQELKFDEHNKYYARHYLYTRNKPADYFILILQGKVEVEAGKENMKFETGAFSYYGTMALTSVPSDRSPAHPTPLSRSASLSYPDRTDVSTAATLAGSSNQFGSSVLGQYISDFSVRALVDLQYIKITRQQYQNGLLASRMENSPQFPIDGCTTHMENLAEKSELPVVDETTTLLNERNSLLHKASHENAI

In assay [1] the parent is B1. Nature of the assay: SEC-MALS. The following applies: with itself, monomer Mw = 20936.78 Da.
Variants of B2 are the subject of assay [2]. Nature of the assay: SEC-MALS. The following applies: with itself, monomer MW = 47,861.17 Da.

Consider chain 1 F87A, for which the screen value in assay [1] (1 mg/mL (dotted lines)) amounted to 21700 Da; in assay [1] (10 mg/mL (solid lines)), 26400 Da.
Regarding chain 1 F276A, the screen value turned out to be 49200 Da in assay [2] (1 mg/mL (dotted lines)) and 60900 Da in assay [2] (10 mg/mL (solid lines)).
